Blank lines part the entries; values can stand above or below the binder they belong to. No end group written: not given here.
Key:
[1] = molecular target: T1, combined FGFR1 Ig modules 2, 3 (mouse, UniProt P16092 141-365); assay: SPR, apparent Kd, FGFR Ig modules 2, 3 immobilized
T1 construct: Expressed in Drosophila S2 cells; immobilized on CM5 chip by amine coupling in the SPR experiments; also called FGFR Ig modules 2, 3; FGFR modules 2, 3
T1 sequence: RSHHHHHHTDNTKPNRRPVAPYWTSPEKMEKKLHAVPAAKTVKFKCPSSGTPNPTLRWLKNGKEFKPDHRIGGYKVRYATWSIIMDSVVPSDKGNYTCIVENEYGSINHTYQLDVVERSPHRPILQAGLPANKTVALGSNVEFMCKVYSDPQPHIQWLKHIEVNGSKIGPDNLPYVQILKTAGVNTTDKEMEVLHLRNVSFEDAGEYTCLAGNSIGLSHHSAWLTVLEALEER

[2] = molecular target: T1, combined FGFR1 Ig modules 2, 3; assay: SPR, FGFR Ig modules 2, 3 immobilized
[3] = molecular target: FGFR on embryonic rat hippocampal neurons (rat); assay: cell-based or functional assay
[4] = molecular target: T1, combined FGFR1 Ig modules 2, 3; assay: SPR (BIAcoreX), FGFR Ig modules 2, 3 immobilized on CM5

Kd [1]: 2.58 µM
koff [2]: 0.00397 s⁻¹
kon [2]: 2070 M⁻¹ s⁻¹
B1: dendrimeric FG loop peptide (SEQ ID NO: 1) (peptide)
peptide: EVYVVAENQQGKSKA
modifications: also: tetrameric dendrimer: four peptides joined through their C-termini to a three-lysine backbone
notes: Tetrameric dendrimer on a three-lysine backbone; also called dendrimeric version of the FG loop peptide

neurite outgrowth from hippocampal neurons, stimulatory effect relative to the entire FG loop peptide [3]: ~50%
B2: truncated FG loop peptide, heptamer Ala77-K83 (peptide)
peptide: AENQQGK

neurite outgrowth from hippocampal neurons, stimulatory effect relative to the entire FG loop peptide [3]: ~50%
B3: truncated FG loop peptide, nonamer V78-S84 (as printed) (peptide)
peptide: VAENQQGKS

Kd [4]: 9.97 µM
koff [4]: 0.00556 s⁻¹
kon [4]: 889 M⁻¹ s⁻¹
B4: combined NCAM F3 modules 1, 2 (other, rat)
chain: AGHHHHHHQADTPSSPSIDRVEPYSSTAQVQFDEPEATGGVPILKYKAEWKSLGEEAWHSKWYDAKEANMEGIVTIMGLKPETRYAVRLAALNGKGLGEISAATEFKTQPVREPSAPKLEGQMGEDGNSIKVNLIKQDDGGSPIRHYLVKYRALASEWKPEIRLPSGSDHVMLKSLDWNAEYEVYVVAENQQGKSKAAHFVFRTSAQ
notes: range 507-705; Recombinant, expressed in P. pastoris KM71; also called double module protein

neurite outgrowth from hippocampal neurons, stimulatory effect relative to the non-mutated peptide [3]: ~60%
B5: FG loop peptide in which Y74, K83 and K85 were substituted with alanine (peptide)
peptide: EVAVVAENQQGASAA

— patent publication US20060281130A1 (ENKAM PHARMACEUTICALS A S, published 2006)
